Measurements: the supplement of paper PMC12764529
± gives the half width of the 95% confidence interval.

Tests used:
[1] = folding stability dG unfold from trypsin proteolysis; higher = more stable
Procedure: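 Folding stability of de novo designed mini-proteins (<80 aa, no Cys; designed by TrROS, TrMRF, ProteinMPNN and the joint model) was measured by cDNA display proteolysis with trypsin and chymotrypsin. Each protease was used at 11 concentrations in a threefold dilution series plus a no-protease condition. K50 was inferred by Bayesian fitting of sequencing counts, and dG unfold was derived against a sequence-predicted unfolded-state K50 (Tsuboyama et al. method). Sequences shown include variable-length N-terminal GS-type padding (SAGGSAGG...) inside a display construct carrying a PA tag. Rows were kept only if the AF2 dimer inter-PAE was >15, to exclude likely homo-oligomers.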

[2] = folding stability dG unfold (combined trypsin and chymotrypsin); higher = more stable
Procedure, shortened: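 Unfolding free energy was derived, per protease or combined, by relating Bayesian-fitted K50 values from sequencing counts to a sequence-predicted unfolded-state K50 and a shared folded-state K50. The underlying digests exposed cysteine-free mini-proteins under 80 residues, in a PA-tagged cDNA display construct, to trypsin and chymotrypsin at 11 threefold-diluted concentrations and to a no-protease condition. A filter kept only designs with AlphaFold2 dimer inter-PAE above 15.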

| Sequence | folding stability dG unfold [1] [kcal/mol] | folding stability dG unfold [2] [kcal/mol] |
| --- | --- | --- |
| SAGGSAGGSAGGRMYPITFPGKTIEDIEEEIEELPPNYQINIDHDENGHMKVWIMPPDDFSAGGSAGGSAGG [r7_662_TrROS] | -0.422 ± 0.33 | < -1 |
| SAGGSMIEVEIENPDPSVSPEEIAERVIRELTPDGGPLQPLEIKPTLVGDKPVYKIKIYIPDPELIKESAGG [r13_979_JUSTAS] | -0.519 ± 0.2 | < -1 |
| SAGGSAGGSAGPKPEYIRIKIEMWNPDGNPREHDFTFPPGHKDQIENLADNYGFRVSIEKSAGGSAGGSAGG [r11_603_TrROS] | 0.278 ± 0.13 | -0.281 ± 0.29 |
| SAGGSAGGSAGGEILIFDDNGKRIIVIPIPPENRYRVVVIHENTGIPEVKEAKLEEVLSSAGGSAGGSAGGS [r10_482_TrMRF] | 0.92 ± 0.055 | 0.104 ± 0.28 |
| SAGGSSMEELIKAVLEAAEAGKKAVNVKMPLPDGGEIEILDGGVIRIIPPDGVPLEEKIPVSELILSAGGSA [r2_97_JUSTAS] | 0.442 ± 0.044 | < -1 |
| SAGGSAGGSAGGSSTITIGDSEVSVTADPKAPVATASYPASGVTFTITRPDASVTITPTPSAGGSAGGSAGG [r7_156_JUSTAS] | -0.783 ± 0.42 | < -1 |
| SAGGTKYTVSLRPPPTALPSREFTDSPLEIVEALPEDTTEATVTVDNNSTSTTVTFTTKEDLIAAVASSAGG [r13_299_JUSTAS] | 0.00719 ± 0.14 | -0.14 ± 0.33 |
| SAGGSASVPPGKSVTLRISFPETGEERTITLDVKSSEELEAAAELEVPRPDGTPVPVTVSVVETVPSAGGSA [r15_797_JUSTAS] | 0.386 ± 0.094 | 0.085 ± 0.24 |
| SAGGSAGGMITIPINTPGLSPAEAAAIKAQLEADGYPAAEVTITASPVPPVPPLGPENIYSNRGSAGGSAGG [r6_246_JUSTAS] | -0.0678 ± 0.047 | < -1 |
| SAGGSAGGKKVFLPYSVISTVVPKHFPGDEKQALIDAEFLAKKAEEAGFKDVDFVISPVPPGAPSAGGSAGG [r6_545_TrMRF] | -0.467 ± 0.23 | -0.938 ± 0.27 |
| SAGGSAGGSEGQPIIIKIKMENPGNGKKHKFDIMVPPGFKNAEEQANRLMNNFGPVKDVEIYPSAGGSAGGS [r12_942_TrROS] | -0.846 ± 0.3 | < -1 |
| SAGGSAIKITKVEYEPNPDGWREIHFKATPGDPDFLDEIAEALPPDNIEPTEVDEKGYYEIRIPRPSAGGSA [r15_386_TrROS] | 0.0955 ± 0.058 | -0.291 ± 0.17 |
| SAGGSAGGSMERLENGIERIRLLVRFPERDEVRLIEIPLDNVTPEEIIERARELGAEEIELLESAGGSAGGS [r12_792_TrMRF] | 0.11 ± 0.26 | -0.545 ± 0.22 |
| GMAEELAVEKAKEYLAPIPKPYEIDPEKKTVTLPGGGPLKTIPILVTVKDENGNVIKVIEVPIKVVSIPPGS [r1_318_JUSTAS] | 0.0543 ± 0.093 | -0.159 ± 0.25 |
| SEALILDPNVETVSPVFYLLLSPEEAEERARELREELRAELEAAGLPLPEDVVIEVVPAESEEELRALLESA [r9_204_JUSTAS] | 0.5 ± 0.049 | 0.00109 ± 0.18 |
| SAGGSAGGKIEIFDQDQHDEMNQENGMPPKNYWMIRINGKPTAILPPDKPLTPNTIKNLIKEGLSAGGSAGG [r6_243_TrROS] | 0.447 ± 0.15 | -0.799 ± 0.8 |
| SAGGMVSPEVVKAALDDGNPLPLSEIVARIEAETGLPVEVETGDDSFRIVIRDPNRDVELSSETILLSAGGS [r8_105_JUSTAS] | 0.292 ± 0.057 | -0.399 ± 0.25 |
| SAMIKIEIVLPEEDLEKLLESEEVKELAKELEKKTGLKITSIKIEKKEVEVNGEKKKVVVITIEIEPEPSAG [r14_819_TrROS_Hall] | 3.42 ± 0.24 | > 6 |

| Sequence | folding stability dG unfold [1] [kcal/mol] | folding stability dG unfold [2] [kcal/mol] |
| --- | --- | --- |
| SAGGSAGGSAGGGKDVPVIAVPAGDEEAAEEFARRLVAELERRTGKPAGDIPVDFVEVESAGGSAGGSAGGS [r10_1216_TrMRF] | -0.243 ± 0.2 | -0.886 ± 0.84 |
| SALINLKKEDVEKLVKALEKEGNYKVKIKPVKVVYKPKDGSKKPIGAVKIEVIDPDNPKSLLDKIKKAGSAG [r14_628_TrMRF] | -1.29 ± 0.62 | < -1 |
| SAGGSAGGSETSIVFLEEEVLVEEEITLYRDGTPTRERRVRTERVVIRVPVKPEEDVNNPLLLSAGGSAGGS [r12_713_JUSTAS] | -0.765 ± 0.82 | < -1 |
| SGPDVPLTPEEVAARIKAELLEKHPIGEVTPVELREFPELGVVEVRLRINVKGPPGETREIDVRLSRERLSA [r9_1002_JUSTAS] | 0.694 ± 0.13 | 0.0428 ± 0.21 |
| SAGGSAGGSAGGMIEIEVEKEEEVKELAEKFGFKVEAEKIEDGKIIAKIEFIPEEELKKSAGGSAGGSAGGS [r10_218_TrMRF] | -0.839 ± 0.24 | < -1 |
| SAGGSAGGSAGGSIEIDVNPEAGQLKIEIEMPMPNPNGKPRGPMRMEQEFRIDDPEDIKSAGGSAGGSAGGS [r4_10_TrROS] | -0.641 ± 0.33 | < -1 |
| SAGGSAGGSAGMKIVAPSKEEAEKIAKELAKELGLPDEIKDLEIEVIPLKPTPDGGFIPYSAGGSAGGSAGG [r17_237_TrMRF] | -0.168 ± 0.17 | -0.715 ± 0.22 |
| SAGGSAGGSAGGEPVSFLVKTPEDRWYPAVAIPETGEVLVEVPNEVRVLPADAEFEVSPASAGGSAGGSAGG [r7_434_TrMRF] | -0.0127 ± 0.11 | < -1 |
| SAGGSAGGSEPDFVVVDIPFPPDVPLEALVEFARSLPSVVVNLVDEEGRPVSIALPREAVERLASAGGSAGG [r6_791_TrMRF] | -0.347 ± 0.15 | < -1 |
| SAGGSAGGSKIEMMHAIRDNGKPFFVRITMDIQPQKDPNGEPKVNFEPKIEIYDPDGKPIFEISAGGSAGGS [r20_224_TrROS] | 0.641 ± 0.14 | 0.392 ± 0.3 |
| SAGGGKIKKPKPIVIRVPKNSIKVGDDVPVAVLAKALGIDPSAKAKVGEVKPPENGDYELVVVEVESSAGGS [r16_165_TrMRF] | -0.508 ± 0.34 | < -1 |
| SAGGSAGGSAGPPVLVSINPDENATVEVRTRPDGKPVLLFTVPKTGEVLVVHPDGKIDNSSAGGSAGGSAGG [r11_601_TrMRF] | -0.0916 ± 0.17 | -0.246 ± 0.35 |
| SAGGSAGGSAGGDIEINVNANSPEEAKKFLGEFAQEGPAEIKIEVTPPPPPMPPNDPEYKSAGGSAGGSAGG [r7_261_TrROS] | -0.235 ± 0.096 | < -1 |
| SAGGSAGGSAGGRTIHINGATPERIIKWLKEWPPDEPVEIHYHGPNNKHREIPIDELKKSAGGSAGGSAGGS [r10_732_TrROS] | -0.0271 ± 0.1 | -0.669 ± 0.38 |
| SAGGSAGGSAGGSMAVPQTVEVEAGAKPILVTTYRLPPDGAVVRIEYPGPAVVLEEELESAGGSAGGSAGGS [r10_630_JUSTAS] | -0.445 ± 0.2 | < -1 |
| SSPGLVEVTIPLKIVLEPLAPDGTPAPRPVATVPIKTAASSEDPSAIEQAKEDVIKELKPEFPDAKFVVESA [r9_1112_JUSTAS] | 0.223 ± 0.065 | < -1 |
| SAEIEELARKLAEELGAEVVEVKVEKLPNGTVKVTVVVRVNGELYKVTIEYDKETKEITIKIEKLPEEESAG [r14_784_TrROS_Hall] | 3.81 ± 0.48 | > 6 |
| SAGNIKKGSIYMPEDGWMIKIEYPDPGKEIHIPFDDDLSEIKDNLEEPGFEPVAVEVEPFPPGQPMEISAGG [r19_386_TrROS] | -1.05 ± 0.22 | < -1 |
